From paper PMC10764323

Target: His-tAmSOD2 (Avicennia marina MnSOD, AmSOD2, without the mitochondrial transit peptide) (Avicennia marina)
Test: SEC; gel filtration chromatography on a calibrated Biosil-250 analytical column, elution compared with standard proteins; native mass of almost 116 kDa against a single band of 26 kDa after SDS and DTT

## His-tAmSOD2 (Avicennia marina MnSOD, AmSOD2, without the mitochondrial transit peptide) (enzyme)
  stoichiometry N: 4
